Test results from the MegaScale stability set (Tsuboyama et al. 2023).

B1: EEHEE_rd4_0363 (parent)
chain: VTVDIKGMEYHFDNPEEAKKFAERMAKELGGELKVENGTLKVE

Variants of: B1
Assay: folding stability dG (cDNA display proteolysis); higher = more stable
Settings: PBS, room temperature

| Variant | folding stability dG [kcal/mol] |
| --- | --- |
| VTVDIKGMEYHFDNPEEAKKFAERMAAELGGELKVENGTLKVE | 2.15 |
| VTVDIKGMEYHFDNPEEAKKFAERMARELGGELKVENGTLKVE | 2.11 |
| VTVDIKGMEYHFDNPEEAKKFAERMKKELGGELKVENGTLKVE | 0.954 |
| VTVDIKGMEYHFDNPEEAKKFAERMFKELGGELKVENGTLKVE | 1.13 |
| VTVDIKGMEYHFDNPEEAKKFAERMQKELGGELKVENGTLKVE | 1.3 |
| VTVDIKGMEYHFDNPEEAKKFAERMHKELGGELKVENGTLKVE | 0.962 |
| VTVDIKGMEYHFDNPEEAKKFAERMWKELGGELKVENGTLKVE | 1.48 |
| VTVDIKGMEYHFDNPEEAKKFAERMRKELGGELKVENGTLKVE | 1.24 |
| VTVDIKGMEYHFDNPEEAKKFAERMTKELGGELKVENGTLKVE | 1.23 |
| VTVDIKGMEYHFDNPEEAKKFAERMDKELGGELKVENGTLKVE | 0.592 |
| VTVDIKGMEYHFDNPEEAKKFAERMMKELGGELKVENGTLKVE | 1.55 |
| VTVDIKGMEYHFDNPEEAKKFAERMVKELGGELKVENGTLKVE | 1.66 |
| VTVDIKGMEYHFDNPEEAKKFAERMPKELGGELKVENGTLKVE | -0.451 |
| VTVDIKGMEYHFDNPEEAKKFAERMNKELGGELKVENGTLKVE | 0.898 |
| VTVDIKGMEYHFDNPEEAKKFAERMIKELGGELKVENGTLKVE | 1.6 |
| VTVDIKGMEYHFDNPEEAKKFAERMGKELGGELKVENGTLKVE | 0.834 |
| VTVDIKGMEYHFDNPEEAKKFAERMYKELGGELKVENGTLKVE | 0.983 |
| VTVDIKGMEYHFDNPEEAKKFAERMCKELGGELKVENGTLKVE | 2.06 |
| VTVDIKGMEYHFDNPEEAKKFAERMEKELGGELKVENGTLKVE | 0.931 |
| VTVDIKGMEYHFDNPEEAKKFAERMLKELGGELKVENGTLKVE | 1.64 |

| Variant | folding stability dG [kcal/mol] |
| --- | --- |
| VTVDIKGMEYHFDNPEEAKKFAERMSKELGGELKVENGTLKVE | 1.3 |
| VTVDIKGMEYHFDNPEEAKKFAERKAKELGGELKVENGTLKVE | 1.37 |
| VTVDIKGMEYHFDNPEEAKKFAERYAKELGGELKVENGTLKVE | 1.34 |
| VTVDIKGMEYHFDNPEEAKKFAERIAKELGGELKVENGTLKVE | 1.57 |
| VTVDIKGMEYHFDNPEEAKKFAERWAKELGGELKVENGTLKVE | 2.1 |
| VTVDIKGMEYHFDNPEEAKKFAERRAKELGGELKVENGTLKVE | 1.13 |
| VTVDIKGMEYHFDNPEEAKKFAERFAKELGGELKVENGTLKVE | 1.08 |
| VTVDIKGMEYHFDNPEEAKKFAERCAKELGGELKVENGTLKVE | 2.19 |
| VTVDIKGMEYHFDNPEEAKKFAERTAKELGGELKVENGTLKVE | 0.78 |
| VTVDIKGMEYHFDNPEEAKKFAERSAKELGGELKVENGTLKVE | 0.692 |
| VTVDIKGMEYHFDNPEEAKKFAERPAKELGGELKVENGTLKVE | -0.009 |
| VTVDIKGMEYHFDNPEEAKKFAERHAKELGGELKVENGTLKVE | 0.844 |
| VTVDIKGMEYHFDNPEEAKKFAERQAKELGGELKVENGTLKVE | 1.05 |
| VTVDIKGMEYHFDNPEEAKKFAERAAKELGGELKVENGTLKVE | 1.37 |
| VTVDIKGMEYHFDNPEEAKKFAERDAKELGGELKVENGTLKVE | 0.142 |
| VTVDIKGMEYHFDNPEEAKKFAERGAKELGGELKVENGTLKVE | 0.03 |
| VTVDIKGMEYHFDNPEEAKKFAERNAKELGGELKVENGTLKVE | 0.581 |
| VTVDIKGMEYHFDNPEEAKKFAEREAKELGGELKVENGTLKVE | 0.574 |
| VTVDIKGMEYHFDNPEEAKKFAERLAKELGGELKVENGTLKVE | 1.45 |
| VTVDIKGMEYHFDNPEEAKKFAERVAKELGGELKVENGTLKVE | 1.44 |

| Variant | folding stability dG [kcal/mol] |
| --- | --- |
| VTVDIKGMEYHFDNPEEAKKFAERMAKKLGGELKVENGTLKVE | 1.92 |
| VTVDIKGMEYHFDNPEEAKKFAERMAKFLGGELKVENGTLKVE | 1.95 |
| VTVDIKGMEYHFDNPEEAKKFAERMAKILGGELKVENGTLKVE | 2.18 |
| VTVDIKGMEYHFDNPEEAKKFAERMAKWLGGELKVENGTLKVE | 2.26 |
| VTVDIKGMEYHFDNPEEAKKFAERMAKRLGGELKVENGTLKVE | 1.81 |
| VTVDIKGMEYHFDNPEEAKKFAERMAKTLGGELKVENGTLKVE | 1.47 |
| VTVDIKGMEYHFDNPEEAKKFAERMAKQLGGELKVENGTLKVE | 1.75 |
| VTVDIKGMEYHFDNPEEAKKFAERMAKALGGELKVENGTLKVE | 1.81 |
| VTVDIKGMEYHFDNPEEAKKFAERMAKYLGGELKVENGTLKVE | 2.07 |
| VTVDIKGMEYHFDNPEEAKKFAERMAKPLGGELKVENGTLKVE | 0.477 |
| VTVDIKGMEYHFDNPEEAKKFAERMAKGLGGELKVENGTLKVE | 0.795 |
| VTVDIKGMEYHFDNPEEAKKFAERMAKLLGGELKVENGTLKVE | 2.34 |
| VTVDIKGMEYHFDNPEEAKKFAERMAKSLGGELKVENGTLKVE | 1.4 |
| VTVDIKGMEYHFDNPEEAKKFAERMAKMLGGELKVENGTLKVE | 2.03 |
| VTVDIKGMEYHFDNPEEAKKFAERMAKNLGGELKVENGTLKVE | 1.28 |
| VTVDIKGMEYHFDNPEEAKKFAERMAKHLGGELKVENGTLKVE | 1.73 |
| VTVDIKGMEYHFDNPEEAKKFAERMAKCLGGELKVENGTLKVE | 2.97 |
| VTVDIKGMEYHFDNPEEAKKFAERMAKDLGGELKVENGTLKVE | 1.34 |
| VTVDIKGMEYHFDNPEEAKKFAERMAKVLGGELKVENGTLKVE | 1.88 |
